Measured values reported in article PMC11162469, “Discovery of RXFP2 genetic association in resistant hypertensive men and RXFP2 antagonists for the treatment of resistant hypertension” (Scientific Reports, 2024).
Bridge positions count the residues as written; N and C are the ends. Ends that are not written are not given here. I, II: the chains in the order shown.

Tests used:
[1] = target: rat relaxin family peptide receptor 2 (RXFP2) (rat) (UniProt Q5ECL0)
[2] = target: human relaxin family peptide receptor 2 (RXFP2) (human) (UniProt Q8WXD0)
human relaxin family peptide receptor 2 (RXFP2) (human), sequence (Q8WXD0 whole entry): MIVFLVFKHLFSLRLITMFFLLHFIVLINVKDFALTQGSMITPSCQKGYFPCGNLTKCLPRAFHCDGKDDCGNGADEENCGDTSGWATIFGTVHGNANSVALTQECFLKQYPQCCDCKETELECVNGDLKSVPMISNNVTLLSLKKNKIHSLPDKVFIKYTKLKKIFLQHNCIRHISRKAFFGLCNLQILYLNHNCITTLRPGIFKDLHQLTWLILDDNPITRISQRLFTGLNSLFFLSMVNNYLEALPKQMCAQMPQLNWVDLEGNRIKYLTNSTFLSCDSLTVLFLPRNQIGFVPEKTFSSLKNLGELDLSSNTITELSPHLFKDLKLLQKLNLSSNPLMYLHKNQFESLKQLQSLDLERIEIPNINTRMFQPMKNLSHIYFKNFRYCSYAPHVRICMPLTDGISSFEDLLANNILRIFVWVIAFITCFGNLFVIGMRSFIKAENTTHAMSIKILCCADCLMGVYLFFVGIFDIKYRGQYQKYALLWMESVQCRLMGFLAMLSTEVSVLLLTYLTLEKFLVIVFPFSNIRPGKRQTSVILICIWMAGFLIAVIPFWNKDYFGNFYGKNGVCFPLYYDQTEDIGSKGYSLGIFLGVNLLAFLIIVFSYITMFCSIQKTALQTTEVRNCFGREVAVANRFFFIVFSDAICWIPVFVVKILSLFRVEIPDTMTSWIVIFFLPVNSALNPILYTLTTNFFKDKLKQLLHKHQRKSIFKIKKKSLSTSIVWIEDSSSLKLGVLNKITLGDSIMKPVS

[3] = target: rat relaxin family peptide receptor 2 (RXFP2) (rat) (UniProt Q5ECL0); remark: listed apart in the source
[4] = target: rat relaxin family peptide receptor 2 (RXFP2) (rat) (UniProt Q5ECL0); remark: listed apart in the source
[5] = target: rat relaxin family peptide receptor 2 (RXFP2) (rat) (UniProt Q5ECL0); remark: listed apart in the source

rat relaxin family peptide receptor 2 (RXFP2) (rat), sequence (Q5ECL0 entry or part of it): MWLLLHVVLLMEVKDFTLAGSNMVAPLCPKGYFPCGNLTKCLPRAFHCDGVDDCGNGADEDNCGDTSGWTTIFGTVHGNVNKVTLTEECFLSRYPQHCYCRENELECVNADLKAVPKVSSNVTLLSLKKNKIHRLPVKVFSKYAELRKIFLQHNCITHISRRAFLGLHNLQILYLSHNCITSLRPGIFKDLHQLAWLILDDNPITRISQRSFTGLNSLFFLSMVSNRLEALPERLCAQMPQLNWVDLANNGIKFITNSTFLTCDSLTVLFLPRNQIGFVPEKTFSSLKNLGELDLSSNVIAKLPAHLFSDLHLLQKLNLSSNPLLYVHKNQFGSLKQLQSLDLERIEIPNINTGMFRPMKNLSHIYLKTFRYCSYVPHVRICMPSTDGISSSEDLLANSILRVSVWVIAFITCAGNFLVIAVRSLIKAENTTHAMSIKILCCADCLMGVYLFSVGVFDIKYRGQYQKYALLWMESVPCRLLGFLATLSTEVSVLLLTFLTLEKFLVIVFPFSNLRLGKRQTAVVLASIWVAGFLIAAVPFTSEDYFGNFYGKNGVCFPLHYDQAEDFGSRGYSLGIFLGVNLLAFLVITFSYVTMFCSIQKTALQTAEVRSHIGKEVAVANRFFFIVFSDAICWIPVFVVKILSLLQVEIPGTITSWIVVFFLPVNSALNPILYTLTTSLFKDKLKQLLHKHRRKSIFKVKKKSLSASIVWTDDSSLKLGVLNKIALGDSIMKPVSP

Binder	% Max Response, INSL3 (EC80)-stimulated cAMP in HEK293 stably expressing rat RXFP2 [1] [%]	IC50, INSL3 (EC80)-stimulated cAMP in HEK293 stably expressing rat RXFP2 [1] [nM]	IC50, INSL3 (EC80)-stimulated cAMP in HEK293 stably expressing human RXFP2 [2] [nM]	IC50, INSL3-stimulated CYP11B1 mRNA in H295R stably expressing rat RXFP2 [1] [nM]	IC50, INSL3-stimulated CYP11B2 mRNA in H295R stably expressing rat RXFP2 [1] [nM]	EC50, aldosterone secretion (ELISA) from H295R cells stably expressing rat RXFP2 [3] [nM]	EC50, cortisol secretion (ELISA) from H295R cells stably expressing rat RXFP2 [4] [nM]	% Max Response, INSL3 (EC80)-stimulated cAMP in HEK293 stably expressing human RXFP2 [2] [%]	IC50, INSL3-induced cortisol release (ELISA) from H295R stably expressing rat RXFP2 [5] [nM]	IC50, INSL3-induced aldosterone release (ELISA) from H295R stably expressing rat RXFP2 [5] [nM]
RXFP2 mAb 4H1 (antibody, V domains shown) VH: QIQLVQSGPELKKPGETVKISCKTSGYTFTKYPMHWVKQAPGEGLKWMGWINTYSGLPTFADDFKGRFAFSLETSANTADLQINNLKNEDMATYFCAREGKKLSGYFDYWGQGTTLTVSS VL: DIKMTQSPSSMYASLGERVTITCKASQDINSYLTWFQQKPGQSPKTLIYRANRFVDGVPSRFSGSGSGQDYSLTITSLEYEDMGIYYCLQYDEFPYTFGGGTQLEIK	69.7	150	218							
RXFP2 mAb 3F3 (antibody, V domains shown) VH: QVQLQQPGSVLVRPGASVKLSCKASGYIFTSYWMHWVKQRPGQGLEWIGEIYPNSGRTSYNEKFKGKATVTVDTSSSTAYVDLSSLTSEDSAVYYCASGGHWFAYWGQGTLVTVSA VL: DIQMTQSSSSFSVSLGDRVTITCKASEDIYNRLAWYQQKPGNAPRLLISGATSLEAGVPSRFSGSGSGKDYTLSITSLQTEDVSTYYCQQYWITPYTFGGGTKLEIK	78.5	37		3.85	0.51					
RXFP2 mAb 1G1 (antibody, V domains shown) VH: EVQLQQSGPELVKPGASVKMSCKASGYTFTDYNMHWVKQKPGQGLEWIGYINPYNDGTEYNEKFKGKATLTSDKSSSTAYMDLSSLTSEDSAVYYCARGLWFAMNYWGQGTSVTVSS VL: DIQMTQSSSSFSVSLGDRVTITCKASEDIYNRLAWYQQKPGNTPRLLISGATILETGVPSRFSGSGSGKDYTLSIISLQTEDVATYYCQQYWIIPPTFGGGTKLEIK	87.2	28		0.27	0.17					
Rat INSL3 (ligand, disulfide I:10-I:15, I:11-II:14, I:24-II:26) chain 1: SVATNAVHRCCLTGCTQQDLLGLCPH chain 2: LRSPQPPEARAKLCGHHLVRALVRVCGGPRWSPEA						2.2	0.16			
RXFP2 mAb 4G6 (antibody, V domains shown) VH: EVQLQQSGPELVKPGASVKLSCKASGYTFTSYVMHWVKQKPEQGLEWIGYKNPSNDGIKYNEKFKGKATLTSDKSSNIAYMELFSLTSEDSAVYYCARSDFGSVWAMDYWGQGTSVTVSS VL: SIVMTQTPKFLLVSAGDRVTITCKASQSVNDDIVWYQQKPGQSPKLLIYYASNRYTGVPDRFTGSGYGTDFTFTISTVQAGDLAVYFCQQDYSSPFTFGSGTKLEIK	82.5	14.1	15.6	0.33	0.1			84.5	0.26	
RXFP2 mAb 4A5 (antibody, V domains shown) VH: DVQLVESGGGLVQPGGSRKLSCAASGFTFSTFGMHWVRQAPEKGLEWVAYISSGSSTIYYADTVKGRFTISRDNPKNTLFLQMTSLRSDDTAMYYCSRSYYGSAHYFDYWGQGTTLTVSS VL: DIQMTQSPASLSVSVGETVTITCRASENIYSNLAWYQQKQGKSPQLLVYVATNLADGVPSRFSGSGSGTQYSLRINNLQSEDFGNYYCQHFWGTPPTFGGGTKLEIK	91	23.2		2.85	0.31					
RXFP2 mAb 4B8 (antibody, V domains shown) VH: QVQLKQSGPGLVQPSQSLSITCTVSGFSLSRYGVHWVRQSPGKGLEWLGVIWSGGSTEYNAVFKSRLSISKDNSKSQVFFKMNSLQANDTAIYYCVRADGYYAMEYWGQGTSVTVSS VL: DIQMTQSPASLSVSVGETVTITCRASENIYSNLAWYQQKQGKSPQLLVYAVTNLADGVPSRFSGSGSGTQYSLKINSLQSEDFGNYYCQHFWGTPYTFGGGTKLEIK	86.6	21.4	116	0.23	0.17					
RXFP2 mAb 4H5 (antibody, V domains shown) VH: QVQLKQSGPGLVQPSQSLSITCTVSGFSLTNYGVHWVRQSPGKGLEWLGVIWRDGNTDYNAAFMSRLSITKDNSKSQVFFEMNSLQVDDTAIYYCCRGDGYYAMGYWGQGTSVTVSS VL: DIQMTQSPASLSVSVGETVTITCRASENIYSNLAWYQQRQGRSPQLLVYAATNLADGVPSRFSGSGSGTQYSLKINSLQSEDFGNYYCQHFWGSPRTFGGGTKLEIK	89.2	14.2		0.21	0.15					

Continued, values first:

% Max Response, INSL3 (EC80)-stimulated cAMP in HEK293 stably expressing rat RXFP2 [1] [%]	IC50, INSL3 (EC80)-stimulated cAMP in HEK293 stably expressing rat RXFP2 [1] [nM]	IC50, INSL3 (EC80)-stimulated cAMP in HEK293 stably expressing human RXFP2 [2] [nM]	IC50, INSL3-stimulated CYP11B1 mRNA in H295R stably expressing rat RXFP2 [1] [nM]	IC50, INSL3-stimulated CYP11B2 mRNA in H295R stably expressing rat RXFP2 [1] [nM]	EC50, aldosterone secretion (ELISA) from H295R cells stably expressing rat RXFP2 [3] [nM]	EC50, cortisol secretion (ELISA) from H295R cells stably expressing rat RXFP2 [4] [nM]	% Max Response, INSL3 (EC80)-stimulated cAMP in HEK293 stably expressing human RXFP2 [2] [%]	IC50, INSL3-induced cortisol release (ELISA) from H295R stably expressing rat RXFP2 [5] [nM]	IC50, INSL3-induced aldosterone release (ELISA) from H295R stably expressing rat RXFP2 [5] [nM]	Binder
76.1	19.1	405	0.32	0.1				0.21		RXFP2 mAb 1F2 (antibody, V domains shown) VH: QVQLKQSGPGLVQPSQSLSITCTVSGFSLTAYGVNWVRQSPGKGLEWLGVIWSGGNTDYNAPFISRLSITKDNSKSQVFFKMNSLEADDTAIYYCARAKGYYAMDYWGQGTSVTVSS VL: DIQMTQSPASLSVSVGESVTITCRATENIYSNLVWYQQKQGQSPQLLVYAVTSLADGVPSRFSGSGSGTQYSLKINSLQSEDFGTYYCQHFWGTPYTFGGGTKLEIK
71.6	15.8		0.33	0.16						RXFP2 mAb 3H1 (antibody, V domains shown) VH: QVQLKETGPGLVAPSQSLSITCTVSGFSLTNYGVNWVRQPPGKGLEWLVVIWSDGSTNYNSALKSRLSISKDNSKSQVFLKMNSLQTDDTAMYYCARQQGYYAMDYWGQGTSVIVSS VL: DIQMTQSPASLSVSVGETVTITCRASENIYSNLAWYQQKQGKSPQLLVYAVTNLADGVPSRFSGSGSGTQYSLKINSLQSEDFGSYYCQHFWGPPYTFGGGTKLEIK
85.7	18.9		0.26	0.13						RXFP2 mAb 4H2 (antibody, V domains shown) VH: QVQLRQSGPSLVQPSQSLSITCTVSGFSLTNYGVHWVRQSPGKGLEWLGVIWRGGNTDHNAAFMSRLSITKDNSESQVFFKMNSLQVDDTAIYYCAKAEGYYALDYWGQGTSVTVYS VL: DIQMTQSPASLSVSVGETVTITCRASENIYSNLAWYQQKQGKSPQLLVYAVTNLADGVPSRFSGSGSGTQYSLKINSLQSEDFGSYYCQHFWGTPWTFGGGTKLEIK
83.3	16.1		0.33	0.2						RXFP2 mAb 3G4 (antibody, V domains shown) VH: QVQLKESGPGLVAPSQSLSITCTVSGFSLTSYGVSWVRQPPGKGLEWLGVIWGDGSTNYHSALISRLSISKDNSKSQVFLKLNSLQTDDTATYYCAKSLGYYAMDYWGQGTSVTVSS VL: DIQMTQSPASLSVSVGETVTITCRASENIYSNLVWYQQKQGKSPQLLVYAATNLAEGVPSRFSGSGSGTQYSLKINSLQSEDFGSYYCQHFWGPPWTFGGGTKLEIK
69.7	19.9	589	0.27	0.23						RXFP2 mAb 3F1 (antibody, V domains shown) VH: QVQLKESGPGLVAPSQSLSITCTVSGFSLTDYGVSWIRQPPGKGLEWLGVIWGGGSTDYNPALKSRLSISKDNSKSQVFLKMNSLQADDTAMYYCVKHEGYYAMDYWGQGTSVTVSS VL: DIQMTQSPASLSVSVGETVTITCRASENIYSNLAWYQQKQGKSPHLLVYAVTNLADGVPSRFSGSGSGTQYSLKINSLQSEDFGSYYCQHFWGTPYTFGGGTKLEIK
86.8	21	> 1000	0.14	0.11				0.17	0.05	RXFP2 mAb 2D4 (antibody, V domains shown) VH: QVQLKESGPGLVAPSQSLSITCTVSGFSLTTYGISWVRQPPGKGLEWLGVIWTGGGTNYNSALKSRLSISKDNSKSQVFLKMNSLQTDDTARYYCARTEGYYVMDYWGQGTSVTVSS VL: DIQMTQSPASLSVSVGETVTITCRASENIYSNLVWYQQKQGKSPQLLVYAATNLADGVPSRFSGSGSGTQYSLKINNLQSEDFGTYYCQHFWGPPWTFGGGTKLEIK
80.4	48.5	354					82.7			RXFP2 mAb 4F6 (antibody, V domains shown) VH: EVQLQQSGPELVKPGASVKMSCKASGYTFTNYVLHWVKQKPGQGLEWIGYINPYNDGSKYNEKFKGRATLTSDKSSSTAYMELSSLTSEDSAVYYCARGGWLLDYFDYWGQGTTLTVSS VL: DVLMTQSPLSLPVSLGEQASISCRSSQSIVHSDGDTYLEWYLQKPGQSPNLLIYKVSNRFSGVPDRFSGSGSGTDFTLKISRVEAEDLGVYYCFQGSHVPPTFGGGTKLEIK
